This data set in a line: yeast display, Sf9 membrane polyspecificity reagent, FACS + sequencing; frameworks hold sequencing errors. In outline:
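Sorting gates, low and high (top ~1%), were placed on anti-HA fluorescence to track expression and on streptavidin fluorescence to track reagent binding. A clone's polyreactivity label is taken from the gate it came out of. The reagent was 10% biotinylated, detergent-solubilized Sf9 membrane, applied for 1 hour at 4 °C to galactose-induced yeast display cells.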
Turning to “QVQLVDSGRGLVQAGGSLRLSCAASGFIFNPYVMGWYRQAPGKERELVAVITSGGSTNYADSVKGRFTISRDNAKNTVYLQMNSLKPEDTAVYYCNVDRRPYYVWRVTYDYWGQGTQVTVSS”, the “polyreactivity (PSR sort gate)” value was “low polyreactivity”.

For the sequence “QVQLVDSGVGLVQAGGSLRLSCAASGRIFSVYAMGRYRHAPGKERELVASISSGGSTNYADSVKGRFTISRDNAKNTVYLQMNSLKPEDTAVYYCAADYWYRLFWYYGAPLDYWGLGTQVTVSS”, the “polyreactivity (PSR sort gate)” value is “low polyreactivity”.

Turning to “QVQLVDSRGGLDQAGGSHRLSCAASGSTFSTNVMGWYRQAPGKERELVAAISISGTTTYYADSVKGRFTISRDNAKNTVYLQMNSLKPEDTAVYYCAAENYVAWTWHDYWGQGTQVTVSS”, the “polyreactivity (PSR sort gate)” value was “high polyreactivity”.

As for “QVQLVDSRGGLVQAGGSLRLSCAASGFIFSRYAMGWSRQAPGKERELVAAISYRGGSTYYADSVKGRFTISRDNAKNPVYLQMNSLKPEDTAVYYCAASLRYYGLEMDYWGQGTQVTVSS”, the “polyreactivity (PSR sort gate)” value is recorded as “high polyreactivity”.

Take “QVQLVDSRGGLVQAGRSLRLSCAASGIIFFAYAMGWYRQAPGKERELVAAISSSGGRTYYADSVKGRFTISRDKAKNTVYLQMNSLKPEDTAVYYCNARWHGSFDYWGQGTQVTVSS”: the “polyreactivity (PSR sort gate)” value is “low polyreactivity”.

For the sequence “QVQLVDSRGLLVQAGGSLRLSCAASGSTYSYYAMGWYRQAPGKERELVAAITRGGSTYYADSVKGRFTISRDNAKNTVYLQMNSLKPEDPAVYYCSATHVSRRWGMDYWGEGTQVTVSS”, the “polyreactivity (PSR sort gate)” value is recorded as “high polyreactivity”.

For the sequence “QVQLVDSVGGLVQAGGSLRLSCAASGRTFSNYAMGWYRQAPGKERQLVAAISGTGDNTYYADSVKGRFTISRDNAKNTVYLQMNSLKPEDTAVYYCKTVYYGWPRRYGYWGQGTQVTVSS”, the “polyreactivity (PSR sort gate)” value is “high polyreactivity”.

As for “QVQLVDTGAGLVQAGGSLRISCAPSGNIFVDNVMGWYRQAPGKERELVAAIDYSGGSTYYADSVKGRFTISRDNAKNNVYLQMNSLKPEDTAVYYCNARTYYGFGMDFWGQGTQVTVSS”, the “polyreactivity (PSR sort gate)” value is “low polyreactivity”.

On to “QVQLVDTGGGFVQAGGSLRLSCAASGRTFPYYAMGLYRQAPGKERELVAAMTRGVRTQYADSVKGRFTISRDNAKNTVYLQMNSLKPEDTAVYYCAREDWGSYSDMDSWGQGTQVTVSS”, for which the “polyreactivity (PSR sort gate)” value was “low polyreactivity”.

In the case of “QVQLVEAGGGLGQAGGSLRLSCAASGFTFYRYARGWYRQAPGKERELVAAISSSGGRTYYADSVKGRFTISRDTAKNTVYLQMNSLKPEDTAVYYCNVVRLQSYYGPFDYWGQGTQVTVSS”, the “polyreactivity (PSR sort gate)” value was “high polyreactivity”.

In the case of “QVQLVEAGGGLVQAGGRLRLSCAASGIIIVPYTMGWYRQAPGKERELVAAISRSGGRTYYADSVKGRFTISRDNAKNTVYLQMNSLKPEDTAVYDCNKRSLYYGYYLYYRMDYWGQGTQVTVSS”, the “polyreactivity (PSR sort gate)” value is “high polyreactivity”.

Take “QVQLVEAGGGLVQAGGSLRFSCAASGYIVRSYAMGWYRQAPGKERELVAAITRSGGSTYYADSVKGRFSISRDNAQNSVYLQMNSLKPEDTAVYYCTAKRFRTGFDYWGQGTQVTVSS”: the “polyreactivity (PSR sort gate)” value was “low polyreactivity”.

For “QVQLVEAGGGLVQAGGSLRLSCAASGITCRNDAIGWYRQAAGKERELVADITTGGSTYADSVKGRFTISRDNAKNTVYLQLISLKPEDTAVYYFAADRDFRTPRLYYWGQGTQVTVSS”, the “polyreactivity (PSR sort gate)” value is given as “low polyreactivity”.

For “QVQLVEAGGGLVQAGGSLRLSCAASGLTFTVYAMGWYRQAPGKERELVAAITGSGTSTYYADSVKGRFTISRDNAKNTVYLQMNSLKPEDTAVYDCAADLYYYGFFWDFGDGFDYWGQGTQVTVSS”, the “polyreactivity (PSR sort gate)” value is “low polyreactivity”.

“QVQLVEAGGGLVQAGGSLRLSCAASGQIFRKNARGWYSQAPGKERELVAAINSGGSTKYADSVKGRFTISRDNAKNTVYLQMNSLKPEDTAVDYCAARGRYGVPPGRAHDNWRQGTQVTVSS”: the “polyreactivity (PSR sort gate)” value is reported as “high polyreactivity”.

In the case of “QVQLVEAGGGLVQAGGSLRLSCAASGRIFYSNAMGWCRQAPGKERELVAAITWRGGSTYYADSVKGRFTISRDNAKNTVYLQMNSLKPEDTAVYYCATDGYDDTHYYYLGQGTQVTVSS”, the “polyreactivity (PSR sort gate)” value is on record as “low polyreactivity”.

(Values after the nanobody polyreactivity screen of Harvey et al. (2022).)
